From PMC9636267 (2022)
Substitutions are numbered along the chain they refer to. Like-named read-outs stand apart in the source and are kept apart here.

T1: HCoV-229E S ectodomain (17–1115 aa), 229E S trimer (human coronavirus 229E, UniProt P15423 17-1115)
T1 chain: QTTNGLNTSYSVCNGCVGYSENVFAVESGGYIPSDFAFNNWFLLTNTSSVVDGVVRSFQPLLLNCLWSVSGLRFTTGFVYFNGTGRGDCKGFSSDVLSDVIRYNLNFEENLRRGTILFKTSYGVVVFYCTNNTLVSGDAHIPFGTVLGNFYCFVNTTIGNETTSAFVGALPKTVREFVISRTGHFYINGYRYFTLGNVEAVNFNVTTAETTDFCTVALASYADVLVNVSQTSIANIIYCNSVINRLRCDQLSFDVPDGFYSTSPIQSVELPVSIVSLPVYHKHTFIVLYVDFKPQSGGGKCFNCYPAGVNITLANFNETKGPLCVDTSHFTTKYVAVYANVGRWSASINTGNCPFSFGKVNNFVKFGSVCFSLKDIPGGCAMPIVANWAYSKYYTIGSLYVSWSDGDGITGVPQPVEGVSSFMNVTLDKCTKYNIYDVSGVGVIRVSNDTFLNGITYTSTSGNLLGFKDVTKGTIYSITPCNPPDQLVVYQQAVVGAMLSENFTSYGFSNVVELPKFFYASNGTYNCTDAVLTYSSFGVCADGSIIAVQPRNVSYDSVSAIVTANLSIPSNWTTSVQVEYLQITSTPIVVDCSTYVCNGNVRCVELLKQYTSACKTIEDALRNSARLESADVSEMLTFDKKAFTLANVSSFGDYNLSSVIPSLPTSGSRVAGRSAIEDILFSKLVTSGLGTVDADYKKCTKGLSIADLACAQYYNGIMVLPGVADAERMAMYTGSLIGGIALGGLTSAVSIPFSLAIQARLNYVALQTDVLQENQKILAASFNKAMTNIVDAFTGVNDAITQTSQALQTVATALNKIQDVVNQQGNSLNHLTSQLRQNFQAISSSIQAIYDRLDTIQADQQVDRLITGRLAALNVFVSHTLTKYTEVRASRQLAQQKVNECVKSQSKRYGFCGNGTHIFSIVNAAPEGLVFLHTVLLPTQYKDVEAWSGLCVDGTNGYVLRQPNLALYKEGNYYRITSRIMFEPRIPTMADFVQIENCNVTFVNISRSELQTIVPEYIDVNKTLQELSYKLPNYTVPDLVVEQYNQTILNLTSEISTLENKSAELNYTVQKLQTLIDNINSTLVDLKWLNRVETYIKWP

T2: HCoV-229E NTD (17–265 aa) (human coronavirus 229E, UniProt P15423 17-265)
T2 chain: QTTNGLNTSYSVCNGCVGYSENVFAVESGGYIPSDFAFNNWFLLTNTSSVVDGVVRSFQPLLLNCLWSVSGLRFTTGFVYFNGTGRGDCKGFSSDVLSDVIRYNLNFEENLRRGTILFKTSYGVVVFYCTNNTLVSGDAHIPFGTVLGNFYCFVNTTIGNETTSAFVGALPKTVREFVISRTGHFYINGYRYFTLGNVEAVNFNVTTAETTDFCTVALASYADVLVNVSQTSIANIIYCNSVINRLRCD

T3: HCoV-229E S1 subunit (17–560 aa) (human coronavirus 229E, UniProt P15423 17-560)
T3 chain: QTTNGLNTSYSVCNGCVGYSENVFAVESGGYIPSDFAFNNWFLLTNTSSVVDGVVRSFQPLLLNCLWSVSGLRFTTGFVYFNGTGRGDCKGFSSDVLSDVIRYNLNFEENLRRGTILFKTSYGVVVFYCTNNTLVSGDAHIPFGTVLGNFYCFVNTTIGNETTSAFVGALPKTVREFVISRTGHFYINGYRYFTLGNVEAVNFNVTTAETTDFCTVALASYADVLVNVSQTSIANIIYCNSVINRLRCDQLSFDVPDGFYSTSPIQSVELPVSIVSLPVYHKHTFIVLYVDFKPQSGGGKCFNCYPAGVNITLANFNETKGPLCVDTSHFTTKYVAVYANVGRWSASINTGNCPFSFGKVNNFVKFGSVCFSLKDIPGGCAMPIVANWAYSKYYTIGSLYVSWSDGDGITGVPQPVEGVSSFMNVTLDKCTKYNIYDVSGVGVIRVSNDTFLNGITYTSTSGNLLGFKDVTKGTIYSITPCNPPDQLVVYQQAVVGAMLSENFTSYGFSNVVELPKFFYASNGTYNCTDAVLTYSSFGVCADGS

T4: HCoV-NL63 S ectodomain (16–1291 aa) (human coronavirus NL63, UniProt Q6Q1S2 16-1291)
T4 chain: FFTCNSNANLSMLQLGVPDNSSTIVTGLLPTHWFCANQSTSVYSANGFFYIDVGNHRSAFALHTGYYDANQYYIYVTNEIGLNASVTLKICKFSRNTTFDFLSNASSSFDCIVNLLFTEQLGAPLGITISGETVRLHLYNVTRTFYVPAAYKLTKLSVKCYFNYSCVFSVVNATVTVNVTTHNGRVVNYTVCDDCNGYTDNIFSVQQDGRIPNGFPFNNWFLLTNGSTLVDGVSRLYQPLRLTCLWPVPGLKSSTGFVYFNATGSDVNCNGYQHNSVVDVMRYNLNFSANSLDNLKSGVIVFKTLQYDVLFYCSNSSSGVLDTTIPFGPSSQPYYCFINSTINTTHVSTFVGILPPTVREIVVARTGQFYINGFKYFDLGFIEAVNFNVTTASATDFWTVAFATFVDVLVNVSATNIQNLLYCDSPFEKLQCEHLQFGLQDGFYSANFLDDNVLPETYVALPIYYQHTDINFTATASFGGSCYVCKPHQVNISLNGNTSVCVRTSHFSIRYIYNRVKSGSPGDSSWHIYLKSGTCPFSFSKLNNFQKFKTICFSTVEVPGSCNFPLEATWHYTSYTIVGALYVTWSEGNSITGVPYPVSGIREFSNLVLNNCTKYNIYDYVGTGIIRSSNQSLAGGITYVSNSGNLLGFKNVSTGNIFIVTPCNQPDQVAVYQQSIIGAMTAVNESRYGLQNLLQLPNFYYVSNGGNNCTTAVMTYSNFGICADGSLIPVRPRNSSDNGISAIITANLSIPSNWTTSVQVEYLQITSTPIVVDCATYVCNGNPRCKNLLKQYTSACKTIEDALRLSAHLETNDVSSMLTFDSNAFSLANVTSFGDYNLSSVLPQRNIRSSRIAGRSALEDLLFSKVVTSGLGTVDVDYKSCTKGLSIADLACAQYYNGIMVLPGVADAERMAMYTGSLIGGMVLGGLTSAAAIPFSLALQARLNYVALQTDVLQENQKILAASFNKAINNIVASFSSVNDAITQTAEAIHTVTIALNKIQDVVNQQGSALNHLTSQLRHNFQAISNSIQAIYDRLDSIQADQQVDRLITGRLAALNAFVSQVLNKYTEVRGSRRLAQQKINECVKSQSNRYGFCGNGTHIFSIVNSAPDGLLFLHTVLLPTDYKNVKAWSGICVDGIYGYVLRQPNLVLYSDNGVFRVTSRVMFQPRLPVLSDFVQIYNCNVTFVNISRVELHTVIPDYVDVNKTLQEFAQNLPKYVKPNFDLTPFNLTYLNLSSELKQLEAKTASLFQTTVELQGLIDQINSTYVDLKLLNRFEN

B1: Fab A11 (Fab, V domains shown)
VH: EVQLVESGGGLVQPGGSLRLSCAASGFNIYSSYIHWVRQAPGKGLEWVASISSSYGYTYYADSVKGRFTISADTSKNTAYLQMNSLRAEDTAVYYCARGHGWAYVWSSYYPAGAFALDYWGQGTLVTVSS
VL: DIQMTQSPSSLSASVGDRVTITCRASQSVSSAVAWYQQKPGKAPKLLIYSASSLYSGVPSRFSGSRSGTDFTLTISSLQPEDFATYYCQQSYALITFGQGTKVEIK
B2: Fab B10 (Fab, V domains shown)
VH: EVQLVESGGGLVQPGGSLRLSCAASGFNLSSSSMHWVRQAPGKGLEWVAYIYPSYSSTYYADSVKGRFTISADTSKNTAYLQMNSLRAEDTAVYYCARASGHFWAYGFDYWGQGTLVTVSS
VL: DIQMTQSPSSLSASVGDRVTITCRASQSVSSAVAWYQQKPGKAPKLLIYSASSLYSGVPSRFSGSRSGTDFTLTISSLQPEDFATYYCQQYSYSGPFTFGQGTKVEIK
B3: Fab D04 (Fab, V domains shown)
VH: EVQLVESGGGLVQPGGSLRLSCAASGFNLSSYYIHWVRQAPGKGLEWVASISPYSSSTYYADSVKGRFTISADTSKNTAYLQMNSLRAEDTAVYYCARWYSPSYGWYWPYASGAGGLDYWGQGTLVTVSS
VL: B2 VL with Y91S, Y93P, S94H, G95Y, P96L, F97I
B4: Fab D12 (Fab, V domains shown)
VH: EVQLVESGGGLVQPGGSLRLSCAASGFNLSSYSMHWVRQAPGKGLEWVAYISPYYSYTSYADSVKGRFTISADTSKNTAYLQMNSLRAEDTAVYYCARVWYHSYPGWVPWGSWAFDYWGQGTLVTVSS
VL: DIQMTQSPSSLSASVGDRVTITCRASQSVSSAVAWYQQKPGKAPKLLIYSASSLYSGVPSRFSGSRSGTDFTLTISSLQPEDFATYYCQQAYYSPITFGQGTKVEIK
B5: Fab A10 (Fab, V domains shown)
VH: EVQLVESGGGLVQPGGSLRLSCAASGFNISSYYMHWVRQAPGKGLEWVAYISPYSGYTYYADSVKGRFTISADTSKNTAYLQMNSLRAEDTAVYYCARAHYPYHGSYWGLDYWGQGTLVTVSS
VL: B4 VL with Y92G, S94V
B6: Fab B09 (Fab, V domains shown)
VH: EVQLVESGGGLVQPGGSLRLSCAASGFNLSYSSIHWVRQAPGKGLEWVAYIYPYYGSTYYADSVKGRFTISADTSKNTAYLQMNSLRAEDTAVYYCARSWSPSSSYPGYGGLDYWGQGTLVTVSS
VL: DIQMTQSPSSLSASVGDRVTITCRASQSVSSAVAWYQQKPGKAPKLLIYSASSLYSGVPSRFSGSRSGTDFTLTISSLQPEDFATYYCQQSWSYYGSLFTFGQGTKVEIK
B7: Fab A01 (Fab, V domains shown)
VH: EVQLVESGGGLVQPGGSLRLSCAASGFNISSSYIHWVRQAPGKGLEWVASIYSYYSSTSYADSVKGRFTISADTSKNTAYLQMNSLRAEDTAVYYCARGGYAFYGYGSPHSWYALDYWGQGTLVTVSS
VL: B6 VL with S91W, S93P, Y94G, Y95S, G96W, S97G, L98P, F99I

Experiments:
Test in all cases: SPR
[1] = target: T1, HCoV-229E S ectodomain (17–1115 aa), …
[2] = target: T2, HCoV-229E NTD (17–265 aa)
[3] = target: T1, HCoV-229E S ectodomain (17–1115 aa), …
[4] = target: T3, HCoV-229E S1 subunit (17–560 aa)
[5] = target: T2, HCoV-229E NTD (17–265 aa)
[6] = target: T3, HCoV-229E S1 subunit (17–560 aa)
[7] = target: T4, HCoV-NL63 S ectodomain (16–1291 aa)
[8] = target: T4, HCoV-NL63 S ectodomain (16–1291 aa)

Binder | koff [1] [s⁻¹] | Kd [2] [nM] | Kd [3] [nM] | Kd [4] [nM] | koff [5] [s⁻¹] | koff [6] [s⁻¹] | Kd [7] [nM] | Kd [8] [nM]
B1 | 0.0034 | 8.8 | 9.4 | 3.2 | 0.004 | 0.0018 | – | –
B2 | 0.00044 | 5.5 | 2.5 | 2.3 | 0.00069 | 0.00031 | – | –
B3 | 0.0012 | 7.7 | 2 | 2 | 0.0026 | 0.0012 | – | –
B4 | 0.0018 | 3.2 | 3.9 | 1.1 | 0.00043 | 0.00086 | 3800 | 8400
B5 | 0.00021 | 4.6 | 6.3 | 3.6 | 0.0015 | 0.00083 | – | –
B6 | 0.00015 | 235 | 33 | 32 | 0.00037 | 0.00064 | – | –
B7 | 0.0017 | 31 | 32 | 17 | 0.00076 | 0.00068 | – | –
